{
  "source": "patent US20100221261",
  "proteins": {"B1": {"name": "Caspase-3 (protein)", "chain": "SGISLDNSYKMDYPEMGLCIIINNKNFHKSTGMTSRSGTDVDAANLRETFRNLKYEVRNKNDLTREEIVELMRDVSKEDHSKRSSFVCVLLSHGEEGIIFGTNGPVDLKKITNFFRGDRCRSLTGKPKLFIIQACRGTELDCGIETDSGVDDDMACHKIPVEADFLYAYSTAPGYYSWRNSKDGSWFIQSLCAMLKQYADKLEFMHILTRVNRKVATEFESFSFDATFHAKKQIPCIVSMLTKELYFYH"}},
  "key": {"[1]": {"molecular_target": "GST-linker BIR 2 BIR3Ring", "sequence (chain, as listed by the source)": "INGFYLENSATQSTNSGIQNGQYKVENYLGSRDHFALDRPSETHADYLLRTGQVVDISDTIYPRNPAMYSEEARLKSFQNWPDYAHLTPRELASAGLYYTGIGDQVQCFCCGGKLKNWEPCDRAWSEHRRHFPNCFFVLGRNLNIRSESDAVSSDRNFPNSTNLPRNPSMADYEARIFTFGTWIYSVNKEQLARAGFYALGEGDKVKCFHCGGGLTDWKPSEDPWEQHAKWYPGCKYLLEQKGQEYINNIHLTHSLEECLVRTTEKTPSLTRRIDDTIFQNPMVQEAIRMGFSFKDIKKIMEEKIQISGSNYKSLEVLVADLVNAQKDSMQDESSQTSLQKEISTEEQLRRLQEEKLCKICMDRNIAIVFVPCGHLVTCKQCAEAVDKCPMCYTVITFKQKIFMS"}, "[2]": {"molecular_target": "GST-XIAP linker BIR 2 [GST: P08515]"}},
  "data": [
    {"protein": "B1", "values": [
      {"measurement": "Caspase 3 activity (hydrolysis of DEVD-AMC, released AMC fluorescence)", "setting": "[1]", "value": "caspase-3 was inhibited by GST fusion proteins of XIAP linker-Bir2, XIAP Linker Bir2-Bir3-RING or full-length XIAP"},
      {"measurement": "Caspase 3 activity (hydrolysis of DEVD-AMC, released AMC fluorescence)", "setting": "[2]", "value": "caspase-3 was inhibited by GST fusion proteins of XIAP linker-Bir2, XIAP Linker Bir2-Bir3-RING or full-length XIAP"}
    ]}
  ]
}
